Reference: article PMC7954794, “Protein context shapes the specificity of SH3 domain-mediated interactions in vivo” (Nature Communications, 2021)

Test system: Sla1 PPIs
Assay: DHFR-PCA of Sla1 SH3-swapped, -shuffled or -deleted baits (Fig. 2E, 4B, 4D, S5A)
Assay type: cell-based, Saccharomyces cerevisiae
Source text: The stuffing of YSC84 SH3 rendered the strain sterile and was therefore not used for this study as the assays require crosses. For genes containing two SH3s (BZZ1 and BEM1), a combination of this first stuffer with a second one ([…]) coding for a highly similar linker ([…]) was used, which allowed targeting each SH3 position independently. The two N-terminal domains of SLA1, which are separated by six nucleotides, were stuffed by a single stuffer. Cells containing pCAS were selected via the G418 resistance cassette from the plasmid on YPD plates (YPD + NAT 100 μg/ml (DHFR F[1,2] selection) + G418 200 µg/mL (Bioshop Canada)). Colonies were randomly selected and grown in YPD media without G418 to allow plasmid loss. The correct insertion of the stuffer was validated by PCR and Sanger sequencing. The SH3-swapped, -shuffled, and -mutated strains were constructed following a second CRISPR–Cas9 editing step with the same procedures. The stuffer sequences were targeted by specific gRNAs (one gRNA per stuffer) and replaced by PCR amplified specific SH3 (with 40 bp homology arms) or libraries of mutated SH3 domains for Deep Mutational Scanning (DMS) with 78 bp flanking homology regions. Validation of the SH3 domain insertions was done as we previously described except for DMS libraries (see below).
The overall DHFR-PCA pipeline is based on Tarassov et al.[43] and the procedures have also been published as a visualized protocol. The screens were performed with robotically manipulated pin tools (BM5-SC1, S&P Robotics Inc.). First, the preys were cherry-picked from 96-well plates to omnitrays in a 384 format on YPD + HPH solid media. Plates were then combined into the 1536 format on YPD + HPH. The array was constituted of 575 preys previously shown to interact physically with at least one SH3-containing protein as reported in BioGRID V3.4.16 along with 40 negative controls. The prey array comprised a border of control strains of two rows and two columns corresponding to the PPI between LSM8-DHFR F[1,2] and CDC39-DHFR F[3]. This double border was used to remove border effects. Preys are present in duplicate at a randomized position in the 1536 array (except for YAL041W which is present four times per array). Baits were crossed with two prey plates, resulting in four independent bait–prey tests for each PPI. Baits were grown in liquid YPD + NAT and then transferred on solid YPD + NAT omnitrays. They were then replicated on YPD + NAT omnitrays in 1536 array format. Mating of DHFR F[1,2] baits with DHFR F[3] preys was done on YPD followed by incubation at 30 °C for 48 h. Two diploid selection steps were performed by replicating the plates on YPD + NAT + HPH and incubating them for 48 h at 30 °C. Pictures were taken at the end of the second diploid selection for quality control. All images were acquired with a EOS Rebel T5i camera (Canon). Finally, the diploid cells were replicated on omnitrays containing solid PCA selection media and incubated for 4 days as a first selection step in a spImager custom robotic platform (S&P Robotics Inc.). Cells were replicated for a second PCA selection step and incubated in the same manner. The last time point of the second PCA selection step was used for the data analysis as in previous studies using this method.
A separate DHFR-PCA screen was performed for the Sla1 SH3 shuffling experiment, with the same analysis as previously described. Three plates had no detectable level of background, which correspond to the second plate of the three Sla1 SH3 WT re-insertion controls. They were attributed the average of the background of the three first plates of the same baits. The threshold was also determined based on the distribution of the PCA scores of all PPIs and corresponds to the top 2.75% of all colonies detected in this experiment. […] Almost all true PPIs are from four replicates (96.2%). […]

B1: WT¦WT¦WT (protein, UniProt P32790 1-1244, looked up)
Actin cytoskeleton-regulatory …: MTVFLGIYRAVYAYEPQTPEELAIQEDDLLYLLQKSDIDDWWTVKKRVIGSDSEEPVGLVPSTYIEEAPVLKKVRAIYDYEQVQNADEELTFHENDVFDVFDDKDADWLLVKSTVSNEFGFIPGNYVEPENGSTSKQEQAPAAAEAPAATPAAAPASAAVLPTNFLPPPQHNDRARMMQSKEDQAPDEDEEGPPPAMPARPTATTETTDATAAAVRSRTRLSYSDNDNDDEEDDYYYNSNSNNVGNHEYNTEYHSWNVTEIEGRKKKKAKLSIGNNKINFIPQKGTPHEWSIDKLVSYDNEKKHMFLEFVDPYRSLELHTGNTTTCEEIMNIIGEYKGASRDPGLREVEMASKSKKRGIVQYDFMAESQDELTIKSGDKVYILDDKKSKDWWMCQLVDSGKSGLVPAQFIEPVRDKKHTESTASGIIKSIKKNFTKSPSRSRSRSRSKSNANASWKDDELQNDVVGSAAGKRSRKSSLSSHKKNSSATKDFPNPKKSRLWVDRSGTFKVDAEFIGCAKGKIHLHKANGVKIAVAADKLSNEDLAYVEKITGFSLEKFKANDGSSSRGTDSRDSERERRRRLKEQEEKERDRRLKERELYELKKARELLDEERSRLQEKELPPIKPPRPTSTTSVPNTTSVPPAESSNNNNSSNKYDWFEFFLNCGVDVSNCQRYTINFDREQLTEDMMPDINNSMLRTLGLREGDIVRVMKHLDKKFGRENIASIPTNATGNMFSQPDGSLNVATSPETSLPQQLLPQTTSPAQTAPSTSAETDDAWTVKPASKSESNLLSKKSEFTGSMQDLLDLQPLEPKKAAASTPEPNLKDLEPVKTGGTTVPAAPVSSAPVSSAPAPLDPFKTGGNNILPLSTGFVMMPMITGGDMLPMQRTGGFVVPQTTFGMQSQVTGGILPVQKTGNGLIPISNTGGAMMPQTTFGAAATVLPLQKTGGGLIPIATTGGAQFPQTSFNVQGQQQLPTGSILPVQKTANGLISANTGVSMPTVQRTGGTMIPQTSFGVSQQLTGGAMMTQPQNTGSAMMPQTSFNAVPQITGGAMMPQTSFNALPQVTGGAMMPLQRTGGALNTFNTGGAMIPQTSFSSQAQNTGGFRPQSQFGLTLQKTGGIAPLNQNQFTGGAMNTLSTGGVLQQQQPQTMNTFNTGGVMQELQMMTTFNTGGAMQQPQMMNTFNTDGIMQQPQMMNTFNTGGAMQQPQQQALQNQPTGFGFGNGPQQSRQANIFNATASNPFGF
B1 was tested, and the “Protein-protein interaction distance between Sla1 baits” value (distance to bait ABP1¦WT¦WT) was 8.25, the “Protein-protein interaction distance between Sla1 baits” value (distance to bait ABP1¦WT¦WT, listed as WT¦WT¦WT*) was 10.6959 and the “Protein-protein interaction distance between Sla1 baits” value (distance to bait D¦D¦D) was 16.1793. The “Protein-protein interaction distance between Sla1 baits” value (distance to bait D¦D¦D, listed as WT¦WT¦WT*) was 19.5303, the “Protein-protein interaction distance between Sla1 baits” value (distance to bait D¦D¦SH3-1) was 16.1305 and the “Protein-protein interaction distance between Sla1 baits” value (distance to bait D¦D¦SH3-1, listed as WT¦WT¦WT*) was 19.4574. The “Protein-protein interaction distance between Sla1 baits” value (distance to bait D¦D¦WT) was 16.2907, the “Protein-protein interaction distance between Sla1 baits” value (distance to bait D¦D¦WT, listed as WT¦WT¦WT*) was 19.6881 and the “Protein-protein interaction distance between Sla1 baits” value (distance to bait D¦WT¦D) was 11.2982. For the same molecule, the “Protein-protein interaction distance between Sla1 baits” value (distance to bait D¦WT¦D, listed as WT¦WT¦WT*) was 13.9439, the “Protein-protein interaction distance between Sla1 baits” value (distance to bait D¦WT¦SH3-1) was 14.8539 and the “Protein-protein interaction distance between Sla1 baits” value (distance to bait D¦WT¦SH3-1, listed as WT¦WT¦WT*) was 18.0045. The “Protein-protein interaction distance between Sla1 baits” value (distance to bait D¦WT¦SH3-2) was 16.1112, the “Protein-protein interaction distance between Sla1 baits” value (distance to bait D¦WT¦SH3-2, listed as WT¦WT¦WT*) was 19.4593 and the “Protein-protein interaction distance between Sla1 baits” value (distance to bait D¦WT¦WT) was 11.2206. For the same molecule, the “Protein-protein interaction distance between Sla1 baits” value (distance to bait D¦WT¦WT, listed as WT¦WT¦WT*) was 13.8561, the “Protein-protein interaction distance between Sla1 baits” value (distance to bait SH3-2¦SH3-1¦WT) was 14.7068 and the “Protein-protein interaction distance between Sla1 baits” value (distance to bait SH3-2¦SH3-1¦WT, listed as WT¦WT¦WT*) was 17.8199. For the same molecule, the “Protein-protein interaction distance between Sla1 baits” value (distance to bait SH3-2¦WT¦D) was 16.5686, the “Protein-protein interaction distance between Sla1 baits” value (distance to bait SH3-2¦WT¦D, listed as WT¦WT¦WT*) was 19.9645 and the “Protein-protein interaction distance between Sla1 baits” value (distance to bait SH3-2¦WT¦WT) was 10.6088. For the same molecule, the “Protein-protein interaction distance between Sla1 baits” value (distance to bait SH3-2¦WT¦WT, listed as WT¦WT¦WT*) was 13.1093, the “Protein-protein interaction distance between Sla1 baits” value (distance to bait SH3-3¦SH3-1¦D) was 6.071 and the “Protein-protein interaction distance between Sla1 baits” value (distance to bait SH3-3¦SH3-1¦D, listed as WT¦WT¦WT*) was 7.132. The “Protein-protein interaction distance between Sla1 baits” value (distance to bait SH3-3¦SH3-1¦SH3-2) was 11.1253, the “Protein-protein interaction distance between Sla1 baits” value (distance to bait SH3-3¦SH3-1¦SH3-2, listed as WT¦WT¦WT*) was 13.2567 and the “Protein-protein interaction distance between Sla1 baits” value (distance to bait SH3-3¦WT¦D) was 6.23. The “Protein-protein interaction distance between Sla1 baits” value (distance to bait SH3-3¦WT¦D, listed as WT¦WT¦WT*) was 7.588, the “Protein-protein interaction distance between Sla1 baits” value (distance to bait SH3-3¦WT¦SH3-1) was 7.451 and the “Protein-protein interaction distance between Sla1 baits” value (distance to bait SH3-3¦WT¦SH3-1, listed as WT¦WT¦WT*) was 7.53. For the same molecule, the “Protein-protein interaction distance between Sla1 baits” value (distance to bait SH3-3¦WT¦WT) was 5.911, the “Protein-protein interaction distance between Sla1 baits” value (distance to bait SH3-3¦WT¦WT, listed as WT¦WT¦WT*) was 7.517 and the “Protein-protein interaction distance between Sla1 baits” value (distance to bait WT*¦WT¦WT) was 6.431. The “Protein-protein interaction distance between Sla1 baits” value (distance to bait WT*¦WT¦WT, listed as WT¦WT¦WT*) was 3.21, the “Protein-protein interaction distance between Sla1 baits” value (distance to bait WT¦ABP1¦WT) was 7.491 and the “Protein-protein interaction distance between Sla1 baits” value (distance to bait WT¦ABP1¦WT, listed as WT¦WT¦WT*) was 10.0527. For the same molecule, the “Protein-protein interaction distance between Sla1 baits” value (distance to bait WT¦D¦D) was 10.9978, the “Protein-protein interaction distance between Sla1 baits” value (distance to bait WT¦D¦D, listed as WT¦WT¦WT*) was 13.667 and the “Protein-protein interaction distance between Sla1 baits” value (distance to bait WT¦D¦SH3-2) was 12.0771. The “Protein-protein interaction distance between Sla1 baits” value (distance to bait WT¦D¦SH3-2, listed as WT¦WT¦WT*) was 14.877, the “Protein-protein interaction distance between Sla1 baits” value (distance to bait WT¦D¦WT) was 11.0221 and the “Protein-protein interaction distance between Sla1 baits” value (distance to bait WT¦D¦WT, listed as WT¦WT¦WT*) was 13.7143. The “Protein-protein interaction distance between Sla1 baits” value (distance to bait WT¦SH3-1¦D) was 6.357, the “Protein-protein interaction distance between Sla1 baits” value (distance to bait WT¦SH3-1¦D, listed as WT¦WT¦WT*) was 7.675 and the “Protein-protein interaction distance between Sla1 baits” value (distance to bait WT¦SH3-1¦WT) was 5.709. For the same molecule, the “Protein-protein interaction distance between Sla1 baits” value (distance to bait WT¦SH3-1¦WT, listed as WT¦WT¦WT*) was 7.171, the “Protein-protein interaction distance between Sla1 baits” value (distance to bait WT¦SH3-3¦D) was 9.961 and the “Protein-protein interaction distance between Sla1 baits” value (distance to bait WT¦SH3-3¦D, listed as WT¦WT¦WT*) was 12.4074. For the same molecule, the “Protein-protein interaction distance between Sla1 baits” value (distance to bait WT¦SH3-3¦SH3-2) was 12.7354, the “Protein-protein interaction distance between Sla1 baits” value (distance to bait WT¦SH3-3¦SH3-2, listed as WT¦WT¦WT*) was 15.4687 and the “Protein-protein interaction distance between Sla1 baits” value (distance to bait WT¦SH3-3¦WT) was 10.0693. For the same molecule, the “Protein-protein interaction distance between Sla1 baits” value (distance to bait WT¦SH3-3¦WT, listed as WT¦WT¦WT*) was 12.5958, the “Protein-protein interaction distance between Sla1 baits” value (distance to bait WT¦WT*¦WT) was 6.129 and the “Protein-protein interaction distance between Sla1 baits” value (distance to bait WT¦WT*¦WT, listed as WT¦WT¦WT*) was 3.181. For the same molecule, the “Protein-protein interaction distance between Sla1 baits” value (distance to bait WT¦WT¦ABP1) was 9, the “Protein-protein interaction distance between Sla1 baits” value (distance to bait WT¦WT¦ABP1, listed as WT¦WT¦WT*) was 10.6328 and the “Protein-protein interaction distance between Sla1 baits” value (distance to bait WT¦WT¦D) was 5.067. The “Protein-protein interaction distance between Sla1 baits” value (distance to bait WT¦WT¦D, listed as WT¦WT¦WT*) was 7.2651, the “Protein-protein interaction distance between Sla1 baits” value (distance to bait WT¦WT¦SH3-1) was 4.945 and the “Protein-protein interaction distance between Sla1 baits” value (distance to bait WT¦WT¦SH3-1, listed as WT¦WT¦WT*) was 5.794. For the same molecule, the “Protein-protein interaction distance between Sla1 baits” value (distance to bait WT¦WT¦SH3-2) was 5.746, the “Protein-protein interaction distance between Sla1 baits” value (distance to bait WT¦WT¦SH3-2, listed as WT¦WT¦WT*) was 6.816 and the “Protein-protein interaction distance between Sla1 baits” value (distance to bait WT¦WT¦WT) was 0. For the same molecule, the “Protein-protein interaction distance between Sla1 baits” value (distance to bait WT¦WT¦WT*) was 6.956, the “Protein-protein interaction distance between Sla1 baits” value (distance to bait WT¦WT¦WT*, listed as WT¦WT¦WT*) was 0 and the “Protein-protein interaction distance between Sla1 baits” value (distance to bait WT¦WT¦WT, listed as WT¦WT¦WT*) was 6.956.
